Experimental data as given in paper PMC5548745, “Agonist-induced dimer dissociation as a macromolecular step in G protein-coupled receptor signaling” (Nature Communications, 2017).
Numbering of substitutions follows the chain as printed. Numbers in names are those of the source.

B1: DVL2-MYC: overexpressed MYC-tagged DVL2 (protein, UniProt O14641 1-736, looked up)
Segment polarity protein …: MAGSSTGGGGVGETKVIYHLDEEETPYLVKIPVPAERITLGDFKSVLQRPAGAKYFFKSMDQDFGVVKEEISDDNARLPCFNGRVVSWLVSSDNPQPEMAPPVHEPRAELAPPAPPLPPLPPERTSGIGDSRPPSFHPNVSSSHENLEPETETESVVSLRRERPRRRDSSEHGAGGHRTGGPSRLERHLAGYESSSTLMTSELESTSLGDSDEEDTMSRFSSSTEQSSASRLLKRHRRRRKQRPPRLERTSSFSSVTDSTMSLNIITVTLNMEKYNFLGISIVGQSNERGDGGIYIGSIMKGGAVAADGRIEPGDMLLQVNDMNFENMSNDDAVRVLRDIVHKPGPIVLTVAKCWDPSPQAYFTLPRNEPIQPIDPAAWVSHSAALTGTFPAYPGSSSMSTITSGSSLPDGCEGRGLSVHTDMASVTKAMAAPESGLEVRDRMWLKITIPNAFLGSDVVDWLYHHVEGFPERREARKYASGLLKAGLIRHTVNKITFSEQCYYVFGDLSGGCESYLVNLSLNDNDGSSGASDQDTLAPLPGATPWPLLPTFSYQYPAPHPYSPQPPPYHELSSYTYGGGSASSQHSEGSRSSGSTRSDGGAGRTGRPEERAPESKSGSGSESEPSSRGGSLRRGGEASGTSDGGPPPSRGSTGGAPNLRAHPGLHPYGPPPGMALPYNPMMVVMMPPPPPPVPPAVQPPGAPPVRDLGSVPPELTASRQSFHMAMGNPSEFFVDVM
modifications: MYC tag
B2: FZD6 dimer control mutant: FZD6 with D365E, R368K, Y369F (protein)
chain: HSLFTCEPITVPRCMKMAYNMTFFPNLMGHYDQSIAAVEMEHFLPLANLECSPNIETFLCKAFVPTCIEQIHVVPPCRKLCEKVYSDCKKLIDTFGIRWPEELECDRLQYCDETVPVTFDPHTEFLGPQKKTEQVQRDIGFWCPRHLKTSGGQGYKFLGIDQCAPPCPNMYFKSDELEFAKSFIGTVSIFCLCATLFTFLTFLIDVRRFRYPERPIIYYSVCYSIVSLMYFIGFLLGDSTACNKADEKLELGDTVVLGSQNKACTVLFMLLYFFTMAGTVWWVILTITWFLAAGRKWSCEAIEQKAVWFHAVAWGTPGFLTVMLLAMNKVEGDNISGVCFVGLYDLEASKFFVLLPLCLCVFVGLSLLLAGIISLNHVRQVIQHDGRNQEKLKKFMIRIGVFSGLYLVPLVTLLGCYVYEQVNRITWEITWVSDHCRQYHIPCPYQAKAKARPELALFMIKYLMTLIVGISAVFWVGSKKTCTEWAGFFKRNRKRDPISESRRVLQESCEFFLKHNSKVKHKKKHYKPSSHKLKVISKSMGTSTGATANHGTSAVAITSHDYLGQETLTEIQTSPETSMREVKADGASTPRLREQDCGEPASPAASISRLSGEQVDGKGQAGSVSESARSEGRISPKSDITDTGLAQSNNLQVPSSSEPSSLKGSTSLLVHPVSGVRKEQGGGCHSDT
modifications: left off: GFP, C-terminal, kept
notes: FZD6 with D365E, R368K, Y369F
B3: FZD6 F337A mutant: FZD6 with F337A mutation on TM4 (protein)
chain: B2 chain with F319A, E347D, K350R, F351Y

Experiments:
[1] = circular dichroism of synthetic TM peptides; assay type: physicochemical; settings: DDM detergent solution; lipophilic environment
Method: CD spectra were recorded using a J-810 spectropolarimeter (Jasco, Easton, MD, USA) in a 0.1 cm quartz cuvette. Far-UV CD spectra were collected over 190–260 nm. ITC measurements were carried out at 20 °C on an ITC (VP–ITC 200, MicroCal). 820 µM FZD6 TM5 and 165 µM FZD6 TM4 were dissolved in 0.5% DDM in water. 2 µl of TM5 peptide were injected into 260 µl TM4 during each titration. The ITC data were analyzed with the Origin 7.0 software.
Supplementary Figure 5: Circular dichroism (CD) and isothermal titration calorimetry (ITC) experiments for structural analysis of synthetic peptides resembling TM1, 4, 5 and mutant TM5 and of peptide-peptide interactions, related to Figure 3. Synthetic peptides (for sequence see Supplementary Fig. 9) resembling TM1 (a), 4 (b), 5 (c) and mutant TM5 (d) were used for CD experiments in triple distilled water with increasing DDM concentrations (0% DDM – black, 0.01% DDM – blue, 0.1% DDM – green and 0.5% DDM – red). (c)TM5 is unstructured in TDW and begins to gain structure at 0.1% DDM. It forms a clear α-helical structure in 0.5% DDM. The triple mutated TM5 (d) forms an α-helix in a much lower DDM concentration (0.01% DDM). […]

FZD6–FZD6 dimer = assay: dcFRAP of V5-FZD6-mCherry/FZD6-GFP (FZD6 dimerization); assay type: cell-based, human; settings: HEK293; for dimerization by CL-induced decrease of mobile fraction: GFP-tagged mutant with wt V5-FZD6-mCherry, anti-V5/avidin crosslinking
Method: For dual color FRAP experiments, cells grown in four compartment 35 mm glass bottom dishes were washed three times with BE buffer[19] (150 mM NaCl, 2.5 mM KCl, 10 mM HEPES, 12 mM glucose, 0.5 mM CaCl2, and 0.5 mM MgCl2). Then, the cells were incubated at RT for 30 min with biotin-conjugated goat polyclonal anti-V5 antibody (Bethyl) diluted 1:100 in BE buffer supplemented with 2.5% bovine serum albumin. For antibody-mediated cross-linking, avidin was added and incubated for 15 min and washed two times with BE buffer before the experiments were performed. In Fig. 4, dcFRAP experiments are presented that employ chemical surface crosslinking to visualize assembly of FZD6 with DVL or heterotrimeric G proteins according to previously published protocols. Live cell imaging experiments were carried out using a Zeiss 710 laser scanning microscope. Images were acquired using a 40×, 1.2 NA C-Apochromat objective and the 488 nm and the 561 nm laser lines were used to excite GFP and mCherry fluorophores, respectively. Photobleaching was performed by 100% laser illumination of a 1.80 × 1.80 µm area placed over the cell plasma membrane. Fluorescence was measured pre- and post-bleach using low-intensity illumination for a total time period of 100 s. Average pixel intensity was measured using the ZEN2013 software, corrected for background fluctuations and bleaching artifacts and normalized to pre-bleached intensity. The recovered mobile fraction (F m) was calculated as follows: F m = (I P–I 0)/(I I–I 0), where I I is the initial intensity measured prior to bleaching, I 0 is the immediate fluorescence intensity post-bleaching and I P is intensity value post-bleaching. The mobile fraction was defined by the average of the fluorescence recovery assessed between time 85–101 s (including pre-bleach measurements). We excluded experiments in which the extracellularly tagged receptors were not sufficiently immobilized after the crosslinking procedure (cutoff at 40% crosslinking-induced reduction in mobile fraction). Kinetic determination of mobile fractions of crosslinked V5-FZD6-mCherry and FZD6-GFP with WNT stimulation over time were performed in one cell culture well. Measurements for each time point were performed on separate cells.
Statistical and graphical analysis was performed using Graph Pad Prism 5 software. Data were analyzed by two-tailed t-test or one-way ANOVA with Fisher’s least significant difference post hoc analysis. Curve fitting of FRAP data was done with a two-phase association nonlinear function using the least square fit. Data for receptor titration in the presence of C59 and output to P-ERK1/2 in Fig. 6h was fit to a linear regression model. All experiments were repeated at least three times in independent experiments (not representing technical replicates). For single cell analysis (dcFRAP), the number of the individual ROIs obtained from several cells in at least three independent experiments is provided in the figure legends. Data from individual ROIs are summarized for data presentation providing the sum of independent observations. Significance levels are given as: *P < 0.05; **P < 0.01; ***P < 0.001. Data in FRAP curves and bar graphs (FRAP) are presented as mean ± s.e.m.

Molecule | dimerization by CL-induced decrease of mobile fraction (FZD6–FZD6 dimer) | other results
KKKVWFHAVAWGTPGFLTVMLLAMNKKK [TM4, synthetic peptide of FZD6 transmembrane helix 4] |  | secondary structure in detergent (CD) [1]: structured and α-helical
B1 |  | effect of altered DVL level on FZD6 dimer formation (FZD6–FZD6 dimer; V5-FZD6-mCherry/FZD6-GFP, pan-DVL siRNA or overexpressed DVL2-MYC): Absence of a role for DVL and G proteins in FZD6 dimer formation
B2 | maintained the intrinsic ability of FZD6 to form dimers | 
B3 | exhibited a reduced ability to dimerize | 
